Experimental findings from patent publication US20180282401A1 (AXON NEUROSCIENCE, published 2018) are described below.

The chains are these.
T1: 256-285/3R (not fully specified)
T1 peptide: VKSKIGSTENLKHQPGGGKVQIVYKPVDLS

T2: 259-288/4R
T2 peptide: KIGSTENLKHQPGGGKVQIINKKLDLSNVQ

T3: 281-305/4R
T3 peptide: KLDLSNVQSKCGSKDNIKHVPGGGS

T4: 256-285/4R
T4 peptide: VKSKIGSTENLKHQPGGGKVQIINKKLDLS

T5: 291-320/4R
T5 peptide: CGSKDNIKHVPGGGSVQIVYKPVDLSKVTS

T6: 259-288/3R (not fully specified)
T6 peptide: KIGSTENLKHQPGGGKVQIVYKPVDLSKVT

T7: 264-293/3R
T7 peptide: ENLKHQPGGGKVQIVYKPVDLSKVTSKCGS

T8: 264-293/4R
T8 peptide: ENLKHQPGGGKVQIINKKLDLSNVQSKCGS

T9: 314-342/R4
T9 peptide: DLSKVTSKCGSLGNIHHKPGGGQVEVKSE

T10: 282-311/4R
T10 peptide: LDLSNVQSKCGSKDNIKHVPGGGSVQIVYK

B1: monoclonal antibody DC8E8 (antibody, V domains shown)
VH: QVQLQQSGPELVKPGTSVKMPCKASGYIFTDYVISWVKQRTGQGLEWIGEIFPRSGSTYYNEKFKGKATLTADKSSNTAYMQLSSVTSEDSAVYFCARDYYGTSFAMDYWGQGTSVTVSS
VL: DIVMSQSPSSLAVSAGEKVTMSCKSSQSLLNSRTRKNYLAWYQQKPGQSPKLLIYWASTRESGVPDRFTGSGSGTDFTLTISSVQAEDLAVYYCKQSFYLRTFGGGTKLDIK
notes: also called mAb DC8E8; antibody of hybridoma ATCC PTA-11994
B2: recombinant scFv fragment of monoclonal antibody DC8E8 (scDC8E8v) (scFv, V domains shown)
VH: B1 VH
VL: B1 VL

Experiment [1] concerns the target T11, human tau isoform 2N4R (human, UniProt P10636 1-758).
T11 construct: also called tau 2N4R; tau441
Nature of the experiment: SPR (BIACORE3000, CM5), DC8E8 captured by anti-mouse antibody, tau protein injected, 25 °C, PBS-P, two-phase reaction model. On the technique in general: Surface plasmon resonance follows binding to a sensor surface in real time, without labels.
Method: (§1) A BIACORE3000 instrument with a CM5 sensor chip (Biacore AB, Uppsala) was used for the SPR assays. […] These experiments were done at 25° C. in PBS pH 7.4 with 0.005% of P20 (PBS-P) as the running buffer.
(§2) Kinetic rate constants were approximated globally, maximal responses were fitted locally, and the bulk response was set to zero.

Experiment [2] has as its target T12, tauΔ(1-150;392-441)/4R (human, UniProt P10636 468-708).
T12 construct: Recombinant truncated human tau, numbered on 2N4R; also the transgene of SHR72 rats; also called misdisordered tau; pathological tau
The experiment is described as above.
Method: as §1, §2

Experiment [3] concerns the target T13, human tau isoform 2N3R (human, UniProt P10636 2-758).
T13 construct: also called tau 2N3R; tau39
The experiment is described as above.
Method: as §1, §2

Experiment [4] addresses T14, tauΔ(1-150;392-441)/3R (human, UniProt P10636 468-708).
T14 construct: Also the transgene of SHR24 rats; also called misdisordered three repeat tau; tau type IIB (151-391/R3)
The description is as above.
Method: as §1, §2

Experiment [5] has as its target T11, human tau isoform 2N4R. The description is as above. The source holds these as a separate data set.
Method: as §1, §2
Experiment [6] concerns the target T12, tauΔ(1-150;392-441)/4R. The description is as above. The source holds these as a separate data set.
Method: as §1, §2
Experiment [7] deals with T1, 256-285/3R. Nature of the experiment: ELISA, synthetic peptide coated (5 µg/ml), DC8E8 hybridoma culture supernate, anti-mouse Ig-HRP, absorbance 492 nm. For orientation: ELISA stands for enzyme-linked immunosorbent assay.
Method: (§3) Microtiter plates were coated overnight at 37° C. with either recombinant tau proteins or with tau peptides (5 μg/ml in PBS, 50 μl/well). […] Bound monoclonal antibody was detected with sheep anti-mouse Ig HRP-conjugated (DAKO). The reaction was developed with orthophenylenediamine solution as a peroxidase substrate and stopped with 50 μl of 2 M H₂SO₄. Absorbance was measured at 492 nm using a Multiscan MCC/340 ELISA reader (Labsystems). Readouts with an absorbance value of at least twice the value of the negative controls (PBS) were considered positive.
The target in experiment [8] is T2, 259-288/4R. Described as above.
Method: as §3
The target of experiment [9] is T3, 281-305/4R. Described as above.
Method: as §3
Experiment [10] deals with T4, 256-285/4R. The experiment is described as above.
Method: as §3
Experiment [11] addresses T5, 291-320/4R. Described as above.
Method: as §3
Experiment [12] has as its target T6, 259-288/3R. The experiment is described as above.
Method: as §3
Experiment [13] addresses T7, 264-293/3R. The experiment is described as above.
Method: as §3
Experiment [14] has as its target T8, 264-293/4R. The description is as above.
Method: as §3
Experiment [15] deals with 275-304/4R. The description is as above.
Method: as §3
Experiment [16] deals with T9, 314-342/R4. The experiment is described as above.
Method: as §3
The target in experiment [17] is T10, 282-311/4R. Described as above.
Method: as §3
The target in experiment [18] is T13, human tau isoform 2N3R. Nature of the experiment: SPR (BIACORE3000, CM5), DC8E8 captured by anti-mouse antibody, tau protein injected, 25 °C, PBS-P, two-phase reaction model. This is another data set of the same source.
Method: as §1, §2
The target of experiment [19] is T14, tauΔ(1-150;392-441)/3R. Described as above. This is another data set of the same source.
Method: as §1, §2
Experiment [20] deals with T11, human tau isoform 2N4R. Nature of the experiment: SPR (Biacore 3000, CM5), His-tagged scDC8E8v captured by anti-His antibody (60 RU), tau protein injected at 100 µl/min, 25 °C, 1:1 model.
In experiment [21] the target is T12, tauΔ(1-150;392-441)/4R. The experiment is described as above.
The target in experiment [22] is B1. Nature of the experiment: competition ELISA: peptide pre-incubated with DC8E8 (1 µg/ml), then on plates coated with the competitor tauΔ(1-150;392-441)/4R; peptide series 1.25-160 µM in paragraph 380, the concentration of the bars is not given.
Experiment [23] concerns the target B1. Nature of the experiment: competition ELISA: peptide pre-incubated with DC8E8, binding to plate-coated tauΔ(1-150;392-441)4R measured.
Method: The coated ELISA plates were washed 4 times with PBS/Tween 20 (phosphate-buffered saline supplemented with 0.05% v/v Tween 20), and blocked with PBS/Tween 20 for 2 h at 25° C. Each of the peptides was separately dissolved in PBS at the final concentration of 5 mM. […] The antibody/peptide mixtures were incubated for 1 hr at 25° C. on a rotating platform set to 250 rpm. One hundred microliters of the antibody/peptide mixtures were then transferred into the prepared ELISA plates and incubated for 1 hr at 25° C. on a rotating platform set to 250 rpm. The ELISA plates were washed 4× times with PBS/Tween 20. The ELISA plates were then incubated with 100 μl of Polyclonal Goat Anti-Mouse Immunoglobulins/HRP (Dako, #P0447) diluted 1:4 000 in PBS/Tween 20 and incubated for 1 hr at 25° C. on a rotating platform set to 250 rpm. The ELISA plates were washed 4× times with PBS/Tween20. […] The developed signal was measured by reading at 490 nm (e.g. using the Victor Multilabel Counter (Wallac).

The koff is a measure of how fast the partners let go of each other. Read a high koff as fast dissociation. As a reminder, the kon is a measure of how fast the partners come together.

T12 sequence (P10636 other isoform, or with tags, fused parts or gaps mutant limits assumed): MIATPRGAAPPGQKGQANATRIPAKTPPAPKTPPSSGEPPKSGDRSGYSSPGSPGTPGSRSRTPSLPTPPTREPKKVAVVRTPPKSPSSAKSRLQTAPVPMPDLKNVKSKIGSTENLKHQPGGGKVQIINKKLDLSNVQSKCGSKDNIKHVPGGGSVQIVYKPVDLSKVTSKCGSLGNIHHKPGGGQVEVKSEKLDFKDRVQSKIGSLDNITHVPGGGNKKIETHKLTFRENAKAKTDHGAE
T14 sequence (P10636 other isoform, or with tags, fused parts or gaps mutant): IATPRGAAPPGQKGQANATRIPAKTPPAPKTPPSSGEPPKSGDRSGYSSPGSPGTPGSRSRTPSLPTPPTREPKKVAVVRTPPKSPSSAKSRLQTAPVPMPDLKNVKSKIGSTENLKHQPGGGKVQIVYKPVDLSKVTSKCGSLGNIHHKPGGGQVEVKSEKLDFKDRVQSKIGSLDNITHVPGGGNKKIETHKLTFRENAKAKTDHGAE
T13 sequence (P10636 other isoform, or with tags, fused parts or gaps limits assumed): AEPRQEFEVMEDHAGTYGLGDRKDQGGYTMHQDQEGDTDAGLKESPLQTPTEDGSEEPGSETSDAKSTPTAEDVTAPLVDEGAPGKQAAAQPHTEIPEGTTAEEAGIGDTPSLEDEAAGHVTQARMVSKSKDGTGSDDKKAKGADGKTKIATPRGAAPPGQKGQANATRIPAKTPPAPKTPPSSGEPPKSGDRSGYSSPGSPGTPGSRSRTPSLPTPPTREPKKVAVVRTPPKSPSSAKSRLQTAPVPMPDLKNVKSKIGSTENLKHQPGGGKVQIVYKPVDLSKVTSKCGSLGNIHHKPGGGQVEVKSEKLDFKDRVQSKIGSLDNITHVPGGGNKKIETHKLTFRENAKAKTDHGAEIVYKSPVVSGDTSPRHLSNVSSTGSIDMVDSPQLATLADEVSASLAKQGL
T11 sequence (P10636 other isoform, or with tags, fused parts or gaps limits assumed): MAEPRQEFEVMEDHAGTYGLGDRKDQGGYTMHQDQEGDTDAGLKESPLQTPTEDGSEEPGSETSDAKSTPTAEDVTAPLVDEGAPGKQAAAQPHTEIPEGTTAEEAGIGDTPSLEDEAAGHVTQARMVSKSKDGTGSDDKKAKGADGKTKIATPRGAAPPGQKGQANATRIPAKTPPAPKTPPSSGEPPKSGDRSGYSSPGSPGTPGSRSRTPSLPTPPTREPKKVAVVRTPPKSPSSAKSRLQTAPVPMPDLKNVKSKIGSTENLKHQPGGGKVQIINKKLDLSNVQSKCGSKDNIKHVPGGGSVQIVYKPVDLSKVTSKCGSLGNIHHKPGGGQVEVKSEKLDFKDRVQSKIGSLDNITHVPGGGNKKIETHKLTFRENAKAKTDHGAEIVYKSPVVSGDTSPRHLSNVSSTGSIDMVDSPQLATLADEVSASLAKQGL

Turning to B1, the Ka in experiment [1] stood at 1.1e+07 M⁻¹; in [2] it was 7.3e+07 M⁻¹; in experiment [3], 290000 M⁻¹; in experiment [4], 1.1e+06 M⁻¹. The koff worked out at 0.04 s⁻¹ in experiment [5], 0.04 s⁻¹ in experiment [6], 0.5 s⁻¹ in [18] and 0.5 s⁻¹ in [19]. Besides, the kon in experiment [5] was found to be 460000 M⁻¹ s⁻¹; in [6] it was 2.6e+06 M⁻¹ s⁻¹; in [18], 140000 M⁻¹ s⁻¹; in [19], 490000 M⁻¹ s⁻¹. The binding result in [7], in experiment [8], in experiment [9], in [10], in experiment [11] and in experiment [12] was “binds” each time. Moreover, the binding result in experiment [13], in [14], in experiment [15], in experiment [16] and in experiment [17] was “binds” throughout.

Turning to B2, in [20], the Ka was found to be 270000 M⁻¹, the koff was 0.2 s⁻¹ and the kon turned out to be 57000 M⁻¹ s⁻¹. Further, in experiment [21], the Ka is 8.1e+06 M⁻¹, the koff came out at 0.02 s⁻¹ and the kon worked out at 180000 M⁻¹ s⁻¹.

Turning to DNIKHVPGGGS (check the listing) [tau peptide 295-DNIKHVPGGGS-305 (SEQ ID NO: 171)], the binding result in experiment [22] is given as “binds”.

GWSIHSPGGGSC (Designed peptide keeping HxPGGG) [designer therapeutic epitope 1 GWSIHSPGGGSC (SEQ ID NO: 250)]: the “IC50 (read off the curve)” value in [23] fell in the range of 2000 to 3000 nM.

SVFQHLPGGGSC (Designed peptide keeping HxPGGG) [designer therapeutic epitope 2 SVFQHLPGGGSC (SEQ ID NO: 251)]: the “IC50 (read off the curve)” value in [23] is ~30 nM.
